Measurements taken from patent US20200209227A1 (published 2020).

Biological target: T1, Rh5 (UniProt Q8IFM5 25-526)
T1 sequence: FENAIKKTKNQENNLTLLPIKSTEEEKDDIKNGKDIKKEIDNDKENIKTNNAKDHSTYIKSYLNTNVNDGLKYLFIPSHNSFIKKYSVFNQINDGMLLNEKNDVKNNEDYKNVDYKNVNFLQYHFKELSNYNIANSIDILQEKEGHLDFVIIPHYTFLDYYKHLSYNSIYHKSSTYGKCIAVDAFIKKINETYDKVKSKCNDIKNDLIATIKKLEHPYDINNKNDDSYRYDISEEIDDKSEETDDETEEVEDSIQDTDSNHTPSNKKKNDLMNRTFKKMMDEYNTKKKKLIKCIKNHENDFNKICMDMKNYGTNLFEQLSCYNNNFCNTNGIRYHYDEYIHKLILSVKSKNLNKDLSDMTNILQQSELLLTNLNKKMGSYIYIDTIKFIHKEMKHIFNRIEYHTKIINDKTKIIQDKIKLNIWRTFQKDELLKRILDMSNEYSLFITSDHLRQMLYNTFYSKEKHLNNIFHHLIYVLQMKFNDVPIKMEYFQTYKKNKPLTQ
Test: BSI, free solution, label-free

B1: Basigin (receptor)
chain: AAGTVFTTVEDLGSKILLTCSLNDSATEVTGHRWLKGGVVLKEDALPGQKTEFKVDSDDQWGEYSCVFLPEPMGTANIQLHGPPRVKAVKSSEHINEGETAMLVCKSESVPPVTDWAWYKITDSEDKALMNGSESRFFVSSSQGRSELHIENLNMEADPGQYRCNGTSSKGSDQAIITLRVRSH
notes: If it applies, basigin was whole, on human erythrocytes
B1 was tested, and the Kd was 1080 nM.
